The target of this experiment is human complement regulatory factor H (hfH) (human) (UniProt P08603). Description: SPR. (Surface plasmon resonance follows binding to a sensor surface in real time, without labels.)
Sequence of human complement regulatory factor H (hfH) (human) (P08603 19-1231): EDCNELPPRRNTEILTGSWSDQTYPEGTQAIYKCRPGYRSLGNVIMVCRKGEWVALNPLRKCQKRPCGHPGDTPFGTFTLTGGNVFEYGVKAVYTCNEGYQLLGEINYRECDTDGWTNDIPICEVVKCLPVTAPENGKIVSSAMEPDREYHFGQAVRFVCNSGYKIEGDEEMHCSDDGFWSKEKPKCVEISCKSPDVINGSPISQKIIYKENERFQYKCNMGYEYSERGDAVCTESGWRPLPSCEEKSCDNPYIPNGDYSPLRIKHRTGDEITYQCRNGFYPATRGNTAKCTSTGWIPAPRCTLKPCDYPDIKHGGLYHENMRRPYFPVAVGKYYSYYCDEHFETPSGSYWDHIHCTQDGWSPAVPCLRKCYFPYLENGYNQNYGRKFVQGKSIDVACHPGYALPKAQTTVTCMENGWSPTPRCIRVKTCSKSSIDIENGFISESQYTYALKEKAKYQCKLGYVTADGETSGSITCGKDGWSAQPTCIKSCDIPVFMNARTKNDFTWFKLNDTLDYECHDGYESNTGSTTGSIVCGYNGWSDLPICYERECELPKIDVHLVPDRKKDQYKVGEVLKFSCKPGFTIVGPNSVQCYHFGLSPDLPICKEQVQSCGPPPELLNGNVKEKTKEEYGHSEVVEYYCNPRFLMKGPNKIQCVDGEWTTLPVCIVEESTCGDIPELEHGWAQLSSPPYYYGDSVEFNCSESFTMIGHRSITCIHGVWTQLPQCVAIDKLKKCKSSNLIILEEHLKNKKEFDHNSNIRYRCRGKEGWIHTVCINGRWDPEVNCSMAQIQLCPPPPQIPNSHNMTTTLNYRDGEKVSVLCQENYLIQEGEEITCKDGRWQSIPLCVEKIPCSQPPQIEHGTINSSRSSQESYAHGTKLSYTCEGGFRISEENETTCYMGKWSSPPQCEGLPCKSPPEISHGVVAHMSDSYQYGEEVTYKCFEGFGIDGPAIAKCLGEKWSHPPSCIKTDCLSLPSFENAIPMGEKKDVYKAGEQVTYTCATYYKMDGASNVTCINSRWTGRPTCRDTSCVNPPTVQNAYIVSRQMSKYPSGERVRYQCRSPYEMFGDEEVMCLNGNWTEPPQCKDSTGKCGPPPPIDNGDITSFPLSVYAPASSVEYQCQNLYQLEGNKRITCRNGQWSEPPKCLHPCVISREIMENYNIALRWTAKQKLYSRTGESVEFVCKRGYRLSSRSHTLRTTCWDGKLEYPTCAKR

What is called Kd is the free concentration of one partner at which half of the binding sites on the other are occupied at equilibrium, for simple one-to-one binding. Read a low Kd as tighter binding. “factor H binding protein (fHbp) variant1-2,3.x from MenB clinical isolate NL096 (from UniProt E6MV22 20-274) (natural protein)” came in with a dissociation constant Kd of 30.4 nM.

These data come from PMC9079162.
